The results in this text go back to paper PMC7608589, “Divergent architecture of the heterotrimeric NatC complex explains N-terminal acetylation of cognate substrates” (Nature Communications, 2020).

Substrate in data set [1]: CC(=O)SCCNC(=O)CCNC(=O)[C@H](O)C(C)(C)COP(=O)(O)OP(=O)(O)OC[C@H]1O[C@@H](n2cnc3c(N)ncnc32)[C@H](O)[C@@H]1OP(=O)(O)O
Put plainly: Ellman (DTNB) colorimetric acetyltransferase assay, Michaelis-Menten fit. It counts as biochemical, Saccharomyces cerevisiae. The conditions noted are these: fixed yArl3 peptide … 1340 µM, 30–500 µM acetyl-CoA, pH 7.5, 25 °C. The text has this:
Ellman (DTNB) colorimetric acetyltransferase assay, Michaelis-Menten fit on NatC WT (Naa30ΔC17, full-length Naa35, Naa38ΔC11)
(In general: Ellman's reagent forms a yellow product with free thiols.)

Data set [2] addresses T1, NatC WT complex (Naa30ΔC17, full-length Naa35, Naa38ΔC11) (S. cerevisiae, UniProt Q03503 1-159; Q02197 1-733; P23059 1-77).
T1 construct: Naa30, catalytic subunit of NatC, S. cerevisiae, residues 1–159; Naa38, small auxiliary subunit of NatC, S. cerevisiae, residues 1–77; also called heterotrimeric NatC complex; not shown: His6, N-terminal, cleaved; copies: + +
T1 sequence (looked up) 1: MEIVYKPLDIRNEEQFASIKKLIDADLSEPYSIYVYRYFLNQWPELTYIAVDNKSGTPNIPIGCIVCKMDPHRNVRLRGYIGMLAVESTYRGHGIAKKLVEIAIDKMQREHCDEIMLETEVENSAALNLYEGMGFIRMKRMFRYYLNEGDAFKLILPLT
T1 sequence (looked up) 2: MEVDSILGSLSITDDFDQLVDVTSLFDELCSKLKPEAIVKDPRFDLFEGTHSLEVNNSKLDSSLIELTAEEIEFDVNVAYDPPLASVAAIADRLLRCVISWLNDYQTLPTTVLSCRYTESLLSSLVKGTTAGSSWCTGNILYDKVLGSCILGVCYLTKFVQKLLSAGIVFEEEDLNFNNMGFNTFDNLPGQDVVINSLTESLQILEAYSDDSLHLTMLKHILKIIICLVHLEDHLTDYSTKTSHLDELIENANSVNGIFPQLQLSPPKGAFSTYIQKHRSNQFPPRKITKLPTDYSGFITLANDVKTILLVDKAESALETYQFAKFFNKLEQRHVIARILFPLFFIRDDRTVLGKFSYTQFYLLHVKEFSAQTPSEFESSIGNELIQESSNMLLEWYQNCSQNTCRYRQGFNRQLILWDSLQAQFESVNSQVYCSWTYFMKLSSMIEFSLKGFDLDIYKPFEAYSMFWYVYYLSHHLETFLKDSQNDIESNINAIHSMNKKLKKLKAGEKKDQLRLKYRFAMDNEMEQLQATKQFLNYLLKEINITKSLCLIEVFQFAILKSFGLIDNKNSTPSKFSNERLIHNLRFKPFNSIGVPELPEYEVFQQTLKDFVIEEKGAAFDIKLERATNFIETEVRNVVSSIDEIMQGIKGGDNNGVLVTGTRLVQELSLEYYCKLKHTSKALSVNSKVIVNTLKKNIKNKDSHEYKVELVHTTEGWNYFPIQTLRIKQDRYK
T1 sequence (looked up) 3: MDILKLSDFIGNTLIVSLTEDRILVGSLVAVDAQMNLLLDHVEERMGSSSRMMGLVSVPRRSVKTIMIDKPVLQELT
Put plainly: crystal structure; purified NatC with CoA (1:3) and substrate peptide … (1:5) or … (1:3) added to the crystallization setup; 14.5–16.5% PEG 4000, 150 mM ammonium iodide, 100 mM sodium citrate pH 6.1–6.3. The following applies: both partners purified.

B1: NatC WT (Naa30ΔC17, full-length Naa35, Naa38ΔC11) (Saccharomyces cerevisiae S288C) (protein)
chain: MEIVYKPLDIRNEEQFASIKKLIDADLSEPYSIYVYRYFLNQWPELTYIAVDNKSGTPNIPIGCIVCKMDPHRNVRLRGYIGMLAVESTYRGHGIAKKLVEIAIDKMQREHCDEIMLETEVENSAALNLYEGMGFIRMKRMFRYYLNEGDAFKLILPLT
notes: heterotrimer co-expressed in E. coli BL21(DE3) from pRSFDuet-1; Naa30 lacks 17 and Naa38 lacks 11 C-terminal residues; His6-tag on Naa35 cut by HRV 3C; with N-alpha-acetyltransferase 35, NatC auxiliary subunit; N-alpha-acetyltransferase 38, NatC auxiliary subunit
On to B1, for which, in data set [1], the Km came to 30 ± 6 µM.

B2: Gag peptide (MLRFVGSRRR) (peptide)
peptide: MLRFVGSRRR
notes: the N-terminal five residues of the major capsid protein (Gag) of the S. cerevisiae virus L-A; GS linker and a triple arginine to facilitate peptide solubility; Only the first six residues were modelled in the crystal; source: synthetic peptide (ProteoGenix)
Regarding B2, in data set [2], the binding result is given as “binds”.

What is called Km is the concentration of substrate that gives half-maximal velocity.
